Measurements reported in the supplement of paper PMC10567573.

B1: GLT8D2 (parent)
chain: QEAKLLHWNGRHKPWDFPSVHNDL
B2: DVL3 (parent)
chain: FPELGYSYGGGSASSQHSEGSRSS
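Further: lentivirally expressed fusions sorted by FACS into six bins by GFP to DsRed ratio, PSI derived from sequencing read proportions per bin multiplied by bin number.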

Variants of: B1
Assay: protein stability index of a GFP-peptide fusion (GPS, HEK-293T) (PSI 1-6); higher = more stable
Conditions: c terminus: a fixed tail appended
Variant G10A has a protein stability index of 2.75. Variant G10I has a protein stability index of 2.48. Work on G10S yielded a protein stability index of 2.69. Variant G10K has a protein stability index of 2.48. N22P gave a protein stability index of 2.57. Variant N22R has a protein stability index of 2.35. In the case of P18F, the protein stability index is reported as 2.18. P18H gave a protein stability index of 2.58. Variant P18N has a protein stability index of 2.72. Variant P18D has a protein stability index of 3.06. Variant P18Q has a protein stability index of 2.83. Work on K13P yielded a protein stability index of 3.04. K13W showed a protein stability index of 2.29. K13E gave a protein stability index of 2.92. Work on K13T yielded a protein stability index of 2.84. Variant K13R has a protein stability index of 2.86. In the case of P14S, the protein stability index is reported as 2.68. For P14F, the protein stability index was 2.45. P14D showed a protein stability index of 3.29. Work on P14H yielded a protein stability index of 2.63. In the case of P14L, the protein stability index is reported as 2.33. P14I showed a protein stability index of 2.03. P14Q gave a protein stability index of 2.27. Variant P14C has a protein stability index of 2.06. With W8C the protein stability index was 3.2. W8S showed a protein stability index of 3.47. W8T gave a protein stability index of 3.23. In the case of W8M, the protein stability index is reported as 2.56. Work on W8A yielded a protein stability index of 3.39. For D23T, the protein stability index was 2.55. For D23N, the protein stability index was 1.86. Work on D23S yielded a protein stability index of 2.17. D23K gave a protein stability index of 3.01. In the case of D23P, the protein stability index is reported as 2.27. In the case of D23W, the protein stability index is reported as 2.48. Variant A3F has a protein stability index of 2.25. In the case of A3V, the protein stability index is reported as 2.5. Work on A3W yielded a protein stability index of 2.24. In the case of H21I, the protein stability index is reported as 2.77. H21D showed a protein stability index of 3.39. H21W gave a protein stability index of 2.18. With H7M the protein stability index was 2.56. Variant H7Y has a protein stability index of 1.85. H7V showed a protein stability index of 2.1. With H7Q the protein stability index was 2.9. In the case of H7R, the protein stability index is reported as 2.81. For H7N, the protein stability index was 2.54. For L6S, the protein stability index was 2.91. With L6H the protein stability index was 2.62. In the case of L6M, the protein stability index is reported as 2.3. Work on L6T yielded a protein stability index of 2.68. Variant L6Y has a protein stability index of 2.56. In the case of Q1R, the protein stability index is reported as 2.48. Variant Q1K has a protein stability index of 2.49. For Q1P, the protein stability index was 2.85. Q1L gave a protein stability index of 2.1. Variant Q1H has a protein stability index of 2.35. S19I showed a protein stability index of 2.5. In the case of S19M, the protein stability index is reported as 2.79. In the case of S19L, the protein stability index is reported as 1.96. In the case of S19C, the protein stability index is reported as 2.38. In the case of S19Q, the protein stability index is reported as 2.95. Variant S19W has a protein stability index of 1.61. For L24W, the protein stability index was 2.06. L24F gave a protein stability index of 2.14. Work on L24N yielded a protein stability index of 3.25. R11S showed a protein stability index of 2.82. For R11P, the protein stability index was 2.33. In the case of R11W, the protein stability index is reported as 2.18. Work on R11M yielded a protein stability index of 3.1. F17M gave a protein stability index of 3.22. F17Y gave a protein stability index of 2.81. With F17E the protein stability index was 4.18. With F17T the protein stability index was 3.17. Variant F17K has a protein stability index of 3.16. For V20E, the protein stability index was 3.63. V20H gave a protein stability index of 2.77. Work on L5E yielded a protein stability index of 3.33. L5S showed a protein stability index of 3.27. L5W showed a protein stability index of 2.59. In the case of L5F, the protein stability index is reported as 2.51. L5G showed a protein stability index of 3.26. For L5H, the protein stability index was 2.67. With L5Q the protein stability index was 2.83. Variant N9P has a protein stability index of 2.56. N9A gave a protein stability index of 2.71. Work on N9Y yielded a protein stability index of 2.33. N9R showed a protein stability index of 2.46. With N9G the protein stability index was 2.59. Variant W15E has a protein stability index of 4.14. W15I gave a protein stability index of 3.02. Variant W15Y has a protein stability index of 2.62. With W15M the protein stability index was 3.48. For H12G, the protein stability index was 2.59. For H12Q, the protein stability index was 2.58. In the case of H12S, the protein stability index is reported as 2.77. With H12W the protein stability index was 2.54. For H12D, the protein stability index was 3.26. E2A gave a protein stability index of 1.89. For E2W, the protein stability index was 2.2. In the case of E2F, the protein stability index is reported as 1.58. In the case of E2L, the protein stability index is reported as 1.96. Work on D16T yielded a protein stability index of 2.62. With D16Y the protein stability index was 1.87. D16F showed a protein stability index of 1.58.

Variants of: B2
Assay: as above
Conditions: c terminus: a fixed tail appended
In the case of G20Y, the protein stability index is reported as 2.64. Variant G20I has a protein stability index of 2.73. Work on G20N yielded a protein stability index of 3.43. Work on G20M yielded a protein stability index of 2.48. For S24V, the protein stability index was 2.34. For S24Q, the protein stability index was 3.01. S15K gave a protein stability index of 2.64. S15E showed a protein stability index of 3.65. Work on P2H yielded a protein stability index of 2.1. In the case of P2E, the protein stability index is reported as 4.66. With G5R the protein stability index was 3.58. G5T gave a protein stability index of 3.96. Work on G5I yielded a protein stability index of 2.93. Variant S12C has a protein stability index of 3.03. S12K gave a protein stability index of 2.82. Y8D showed a protein stability index of 4.75. Y8W gave a protein stability index of 2.82. In the case of A13R, the protein stability index is reported as 3.12. Variant A13N has a protein stability index of 3.03. In the case of A13V, the protein stability index is reported as 3.12. Y6D gave a protein stability index of 5.2. Y6R showed a protein stability index of 3.5. Variant Y6A has a protein stability index of 3.87. Y6P showed a protein stability index of 3.76. For R22H, the protein stability index was 3.24. Variant R22C has a protein stability index of 3.41. Work on R22W yielded a protein stability index of 2.88. R22Q gave a protein stability index of 2.92. Variant R22P has a protein stability index of 3.59. With L4D the protein stability index was 4.52. Variant G11C has a protein stability index of 2.7. Variant G11Y has a protein stability index of 2.38. G11A showed a protein stability index of 3.29. With S18K the protein stability index was 2.98. For S18L, the protein stability index was 2.86. Variant G9W has a protein stability index of 1.58. Work on G9P yielded a protein stability index of 3.37. Work on G10I yielded a protein stability index of 2.81. In the case of G10T, the protein stability index is reported as 2.78. In the case of G10H, the protein stability index is reported as 3.12. G10V gave a protein stability index of 2.83. For G10D, the protein stability index was 3.67. For Q16M, the protein stability index was 3.07. Variant Q16T has a protein stability index of 3.48. Q16F showed a protein stability index of 2.03. With Q16A the protein stability index was 2.86. Work on S21W yielded a protein stability index of 2.29. For S21C, the protein stability index was 3.3. In the case of S21I, the protein stability index is reported as 2.83. S21T gave a protein stability index of 3.24. H17V gave a protein stability index of 3.22. In the case of H17N, the protein stability index is reported as 3.31. Variant S7Q has a protein stability index of 3.22. For S7G, the protein stability index was 2.5. S7V gave a protein stability index of 2.42. S7P showed a protein stability index of 2.7. S23K showed a protein stability index of 3.05. S23G gave a protein stability index of 3.26. For S23N, the protein stability index was 2.91. With S23H the protein stability index was 3.33. For S23A, the protein stability index was 2.97. S14K showed a protein stability index of 3.51.
